{
  "source": "paper PMC5829645",
  "key": {"[1]": {"target": "T1, BmILF (interleukin enhancer binding factor homolog) (Bombyx mori (Bm12 cell cDNA), UniProt A0A1U9WZ16 1-382)", "T1 sequence": "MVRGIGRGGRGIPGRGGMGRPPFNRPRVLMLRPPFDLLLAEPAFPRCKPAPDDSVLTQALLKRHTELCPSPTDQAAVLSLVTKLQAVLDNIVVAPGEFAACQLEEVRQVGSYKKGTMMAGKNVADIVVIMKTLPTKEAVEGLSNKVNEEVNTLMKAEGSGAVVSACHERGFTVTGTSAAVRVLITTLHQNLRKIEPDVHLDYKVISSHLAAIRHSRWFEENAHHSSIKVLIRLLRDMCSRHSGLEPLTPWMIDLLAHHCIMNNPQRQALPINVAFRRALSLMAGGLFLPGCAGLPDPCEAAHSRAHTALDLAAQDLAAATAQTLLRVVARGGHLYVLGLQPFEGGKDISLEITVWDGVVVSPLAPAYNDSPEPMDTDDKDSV", "assay": "EMSA"}, "[2]": {"target": "T1, BmILF (interleukin enhancer binding …)", "assay": "EMSA", "remark": "listed apart in the source"}, "[3]": {"target": "T1, BmILF (interleukin enhancer binding …)", "assay": "competition"}},
  "data": [
    {"binder": "TTGTTGCACTGCTACTCGGCTCACTCGCGCATCGCACTGG (ssDNA)", "note": "[BmPOUM2 i-motif mutant probe]", "values": [
      {"measurement": "binding result", "setting": "[1]", "value": "no binding"}
    ]},
    {"binder": "TTGTTGCCCCGCCCCTCGGCCCCCTCGCGCCCCGCACTGG (structured_DNA)", "note": "[BmPOUM2 i-motif wild-type probe]", "values": [
      {"measurement": "binding result", "setting": "[2]", "value": "binds"}
    ]},
    {"binder": "TTGTTGCCCCGCCCCTCGGCCCCCTCGCGCCCCGCACTGG (structured_DNA)", "note": "[unlabeled wild-type i-motif cold probe]", "values": [
      {"measurement": "binding result", "setting": "[3]", "value": "binds"}
    ]}
  ]
}
